assay: soluble on expression in E. coli; label from the status in PepcDB or PDB records

Soluble on expression in E. coli, not soluble:
MGSDKIHHHHHHMNYRTIAKNGSTEETIKKSRFICQAKRITNEAEGRDFITQIKKEHYKARHSCSAMIIGENSDIKRSSDDGEPSGTAGIPMLSVLEKKQLTNLVLVVTRYFGGIKLGTGGLIRAYSGGAANTLKALGIVEVKKQTGLRLELTYPQYQTFANFLKEHQLQEYDTDFSVTVNTTIYVDKKDIEFTLDQLTEFYQGKLKSHVAGNQIIEVPVI, MGSDKIHHHHHHMPAIELSNGEARLLARPDLGAGLTAFDVLHDGVWQAIFRRVDPSTAHPFALSNILLVPFSGRVSGGGFTFDGTFHALPRNVETELYPIHGNGFSAAWDVASLSADLLTLTLSAEGPGPFRYDATMSYRLQGAGLLMELSLVNRARIRLPYGAGFHPWFVREPDTTLHAPARGVWLEQSDHLPKAHDAIAAQADLDFNRPKPLPARWINNWFDGWDGKARIHWPSRGLAVDVDASEGLRQYVVFSPAAAADFFCFEPVTHPVDAFNLPGKAEAHGLKILEPDESLAVSARVAADFG, MGSDKIHHHHHHMPCKNFFTTRPIMEEDCLWDKRRKIVDDLFRTVLRGNIAILLGPRRVGKTSVVNVISQKFAKRRNHHYIYFNFSRFIGARAISIADIEPKRTSLKLITTSKSYVISLKGISVEVRKTSIEEFTSDFSTLVRILSQNSERGLLIFDEAQVLARLKNLDFRGLIQEITDSYPNISMIFTGSMPGLLIEYLNPGPDKPNFMRASETFTLSRWNVEEGLEFLKKGFESYGISVRNELELERAVKELGGIPGFISYYGITVINLVRSGVPVEKALPRALEESKRYALEEWKKDLEAFLNVYNSPIYVEVMKVLASSYPTALKGAEVYRRMNRAPKRIQHIYKYLDVLEKVGFIRSEGGKYWIEDPILRELLT, MGSDKIHHHHHHMPCMTLLRRAFAIPLLLMVSSGLALAERPAENQKIALQMYTLRSVSTLDEQFSMAHNAGFKAVELVGTHGISASEMKGLLGKYQLKAIAAHVQLGELKSNMAEVVAFNKAIGNRMIIVPWLNVEDRPNSAEGWQRFGTEMNDLGRELKKQGMQLAYHNHNFEMKKYRGKTALEIMLDAAEPENLMLEMDVAWVSLGGQDPARLLRQYKGRIYSIHAKDNTSIGIRDDEMNFAPPGEGILAWEEILPAAAKAGTQWFVAEHDLPKDPQAIISAAYQSLYEKLSKVKSK, MGSDKIHHHHHHMPDFSYAKITKLVVHFAGNKAREEGTEVSANVLQDIGSEMNQTLASIFLEPFTKDDYYQFSHETDLDFNEVRTFAANMFGAEEEFLDESKKILEHLYSETTHPNIKSGDVWIFFIEGCVVDGDFTNGIGIFKVENKEVFLKNDFNGSEFQIGYDKGITGTDLDKGCLIFNVDHDSGNKVLILDRLNRGDSVYWKDKFLSIDKITDEKFYTEGFVEVCTDYIKQREESLLDKSNFVKATSEYLAGEETLNIAEFARTTIEKPEEITEFNTMVDTFERENNVRFPETFQLDEEKREKLSKKIRKTIKLGKNISVVVKDLEQLEETDFVQGYDEEKGKNYMIVYYD, MGSDKIHHHHHHMPFDGLLLHKAVRELKELEGEHLRQIYQPTTVDYYFLFRSATVRVCLRPDVSHVAIAEKEEASEKMPSSFTMLLRKELKGAKLLKVEQIGMDRTLRFSFEKFDEIEGIVQKDLYIEIMGIHSNMILVRDRRIIDAHRRIVTKKREILPGREFVIFPSGKVSIFELRELPPESEKTIRNVLLSLLEGFSPVSVEELIHRTGYELDTPWKAVDQRKILEVLEEIKKELELPGVFVYYEASHPVEVSAFRFTMLSLKERYFEKPSEGINEFVRWKEEKSTFENTKNRFIKVVVNRIEDLEDLEEKLSRELSEAEKAERYKKLGDLIVQNLWSIKGKSGEVELTDWETNEKIVVDVGKDPAQTAQKFYNTYKKLQRKKEQVEKRLEEIQREKEYLYQLWQTIEDAEDLETLEEIEEEMREFGLLKERKTKKQKSKKTRFREVYYGGFKILIGRNNKQNDELVRTSSKEDLWFHAHEMPGAHVVVKTEGKKVPQEVVEYAASLAAGYSKGKNSGKVPVDYTFIKYVRKPKGFKPGMVIYKNYKTILVEPRRIEG, MGSDKIHHHHHHMPFENAPHLVFWEVTKACPLSCKHCRANAIDKPLPGELSTEESKKLLEDIARFGKVVIVFTGGDPLSRSDIFEIMEYAKSLGLIVSIAPSPSYRLRDETMKMISNYARYMSISIDGATSQTHDWLRGLGSYNYALRGIELGLKYGIQVQVNTLVWKKSYSELPFLVKLLKELGVKVWEVFFLIPVGRGVIELDIPKEKYKDVIDFLVETTRYDLVVRTVEAPFFRRAKLEYTPSTIKSNELVSKLRELLGEPVKDVDKSVLPTRDGSGVIFIGYNGDVYPSGFLPLYLGNVRKESIVDIYRKSEVLKIIKDGRFDGKCGVCKFNNICGGSRARAFAVYNNPFAEDPMCPY, MGSDKIHHHHHHMPGAYAHLTMVNLVKEPDRLEKQGFPPEAIVSILDYFRFCELGAVSPDYPYLDIAHSSAGQWADRMHYQRTGDMIKAGVEWIRRLDGASRQKAFSWLLGYTSHVVTDTTIHPVIELKVGEYQKNKDKHRICEMHQDAYIFQRLNLGEIGLAEHLDSGIWSCCDKPGSGKLDSVITRTWQSMLETCYAGACQTDPPLIDNWHGAFKFVVDKAEEGHALPPFARHVAANLGLTYPAVADLDPQYLESLATPLEAMSYDAIFDRALENVLATGSLIAKAVFQNDNSYATALVNCNLDTGKDDQGNHIYWKKGVS, MGSDKIHHHHHHMPGLPPPAVEPAVTSIKQEDLIQSVADALQYISYYHPVDYIKNLSAAYEREESPAAKDAIAQILINSRMCAEGHRPICQDTGIVTVFLEIGMNVRWDDATMGVEDMVNEGVRRAYNHPDNKLRASVLADPAGKRANTKDNTPAVVSTKIVPGDHLEVIVAAKGGGSEAKSKFAMLNPSDSIVDWVLKTVPTMGAGWCPPGMLGIGIGGTAEKAMLLAKEALMEPIDIVDLQARGASNRAEELRLELYEKVNALGIGAQGLGGLTTVLDIKVKDYPTHAANLPVALIPNCAATRHAHFTLDGSGPVMLDPPSLEDWPKLTYNPTNARRVNLDTITREEVASFKPGEVVLLNGKLLTGRDAAHKRMIDMLNRGETLPVDFTNRFIYYVGPVDPVRDEVVGPAGPTTATRMDKFTRQMLEQTGLLGMVGKSERGDAAIDAIRDNKAVYLMAVGGSAYLVSKAIKAARVLAFEDLGMEAIYEFEVKDMPVTVAVDSTGESVHKTGPRLWQSRIGKIPVVVE, MGSDKIHHHHHHMPHDDHITALCFNNAESYEKPILVTASRDGHFKVWILTDDSDIYKKAIAWTCDFVGSYHKYQATNCCFSEDGSLLAVSFEEIVTIWDSQTWELKCTFCQRAGKIRHLCFGRLTCSKYLLGTTDNGILCCWNLLSCSIQWSAKLNVRVMEPDPYSDHVAAVAQSSAGSDLFVFKPSEPRPLYIQKNVSREEVQWGVFVPRDVPESFTSETHQWLNRSQFYFLTKSQSLLTFSTKSPEEKLTPTSKQLLAEESLPTTPFSFILGKHRQQQGAKLTETSENELVQLPLTENIPAITELLHTPAHVLPSASFLCSLFVNSLLLSKETKSAEEVPDDVDMEGNKESDDSDEEYDLTEKDKETNNTDLGEDAIHQLSKSEEKELRKFRKVDYSWLTAL, MGSDKIHHHHHHMPLSPQQDILEIDQDASVLRFAPQAGGRLMSWTIDGEAVIHWPEHADWSQPARIRGGNPLLFPFLGRHRVDGKIGYWRDAKGTVRELPMHGFARDLPFEAHADVHGAGLRMILTDSTATRHGYPFGFRLETAYCLADARTLDVTFTTTNTGDSRLPSRLPYYAGHHFYFTLPHTQRAATSLELPRTERRHQQDDGSISAAEPGEARYTLDEARIQDRFHCLAGAPDRPVRLVAPGLDRIVTIDLQRPDSIPWYAVTTWTEAAESDFYCVEPWLGLPDAIHNGMGLRWLEPGQTEVAALRISVDKLG, MGSDKIHHHHHHMPPRASERSQLRGDENFVHAAHHELYNATQRRNLTKATTTIRTKRLNVTAEMPDWEAVREAGSGIKRDVGQRLDELLVQFEEAVTARGGHVHWARDAKEAGDIVTKLVEETGEKNVVKIKSMATMEIDLNNRLREAGISARETDLAELIVQLGKDKPSHILVPAIHRNRAEIRDIFIREMPNTDDSLSSEPAELAEASRSFLREQFMKAKVAISGANFGIAETGTVTIMESEGNGRMCLTLPETLISVMGIEKIIPTFQDLEVFLQLLPRSSTGERQAPYVSTWSGVTEGDGPKNFHIVLVDNGRTAVLSDEIGREALKCIRCSACLNVCPVYERAGGHAYGSTYPGPIGAILSPQMTGIKNKHDPNAYLPYASSLCGRCNEVCPVKIPFTDILLELRHKKIQTDAPKIEKAMMGAMQLAWGNSTMWNMITRMVFMGRIMGGSNGKITHLPSFLAGWTDVRDTAVPPKKSFRQWFETEEAQQLLADARRDGIHPNNPEVNQKKEN, MGSDKIHHHHHHMPRIHFNPDGRRSPTEFEPVTVHHRKPPLDGIISSHRHNWSQLTCPLKGSMRVTTERQVWTVTSFRAVWIPPGVDHELTMVGATEFHAVFIDPQHSPLPANQCCVVDVSPLMRELMQWLGADYGPATDHSRRLTDVLLEEVRRATRRTSALVLPGDRRLKSLCEALMEDPGSTLTLGEWAHRTGASERTLARLFQIELGTTFGAWRQQLRLSCAVDLLRSGLSLSRIAADLGYADSAAFSTMFKRAFGVAPSRYHASSAQAMN, MGSDKIHHHHHHMPRPYTLFTGQWADLPFEEVARLASGWGYDGLEIAVSGDHLDAWRWDEPGYVQSKLAVLEKYNLKVWAISNHLKGQAVCDDPIDFRHEAIVGSKVWGDGDPEGVRTRAAEEMKHTARLAKALGVDTVVGFTGSSIWQYVAMFPPVPEKVIQAGYQDFADRWNPILDVFDECGVRFAHEVHPSEIAYDYWTTVRTLEAIGHREAFGLNWDPSHFMWQGIDPVSFIWDFKDRIYHVDCKDTKLRPTGRNTVLGSHLPWGDPRRGWDFVSAGRGDVPWESSFRALTAIGYDGPISVEWEDAGMDRLHGAPEALAALKKFDFPASQTSFDAAFSSKD, MGSDKIHHHHHHMPTVLALETSCDESAAAVLRLNNGCLQVIASRIASQVEKHAQWGGVVPEVASRLHVEALPHLVEEVLQEAGQSMARFDAVAATVTPGLAGALMVGSVTGRSLAALHALPFFGIHHLEGHLASVRLAEHPPRPPYLVLLVSGGHTELIRVGAESEMVRLGRSHDDAAGEAFDKVGRLLGLAYPGGPAIQALAATGDSGRFSLPKGRVSKPGGGFHPYDFSFSGLKTAMLRLVQALSEADEDLPRADLAASFEQVVADVLVERSLLCANDQGLKTVVMVGGVAANRRLRELMSKRGQEQGIEVHTAPLRYCTDNAAMIGAAALQRLVSGVNGSSLELGVAARWPLDKTEVLYHSPPPF, MGSDKIHHHHHHMPYERKIINDPVFGFINIPKGLLYDIVRHPLLQRLTRIKQVGLSSVVYPGAQHTRFQHSLGAFYLMSEAITQLTSKGNFIFDSEAEAVQAAILLHDIGHGPFSHVLEDTIVQGVSHEEISLMLMERMNKEMNGQLSLAIQIFKDEYPKRFLHQLVSGQLDMDRLDYLRRDSFYTGVTEGNIGSARIIKMLDVADDRLVIESKGIYSIENFLTARRLMYWQVYLHKTSVAYERMLISTLLRAKELASQGVELFASPALHFFLYNDINHTEFHNNPDCLENFIQLDDNDIWTALKVWSNHPDKVLSTLSLGMINRNIFKVENSAEPIGEDRIKELTLQISQQLGITLSEANYFVSTPSIEKNMYDPADDSIDIIYKDGTIKNIAEASDMLNISLLSKKVKKYYLCYQRLHR, MGSDKIHHHHHHMQDLNDLYYFVQVVKHGGFAPAGRALGIPKSKLSRRITQLEERLDTRLIHRSTRRFSVTELGQAYYRHSVAMLVEAEAAEELIQRHHAEPQGTVRLSCSPSVLHYLITPLLVRFMARCPKVEVQVEATSRRVDVIKEGFDLAIRVRFPPLEDSDLTMKVLASSPQRLMAAPSLFAERPRPRSPADLVELPSLDFEQYDHRHCWDLVGPNGASAQVPHWPRLVTDSAETLHAAALEGLGVVKLGLLVGARDIQEGRLIDVLPGWEPRGGILHAAFPSRRGLLPAVRALLDFLDEQIADEDFDTQEALINSSPRG
